Test results taken from patent US8673848 (Novartis, dated 2014).
*1 amine or outer side, *2 acyl side, *3 side chain or, on linkers, in order; H or OH if unused. Bridges are numbered along the chain shown (N, C = ends). [ ]: non-standard residue; d: D form. The star is where a group is joined. ‑S‑CH2‑C(:Z)‑CH2‑S‑ = thioether linker between two Cys sulfurs, S-CH2-C(=Z)-CH2-S, where Z is an oxime formed with (S)-1-(aminooxy)-19-carboxy-2,7,16,21-tetraoxo-9,12-dioxa-3,6,15,20-tetraazaoctatriacontan-38-oic acid (a fatty acid derivative, O=C(O)CCCCCCCCCCCCCCCCC(=O)N[C@@H](CCC(=O)NCCOCCOCC(=O)NCCNC(=O)CON=C(C[*:1])C[*:2])C(=O)O; Myristoyl = CCCCCCCCCCCCCC(=O)*; pGlu = O=C1CC[C@@H](C(=O)O)N1; d(hCys) = N[C@H](CCS)C(=O)O; Nle = CCCC[C@H](N)C(=O)O; AEEA = NCCOCCOCC(=O)O; Aib = CC(C)(N)C(=O)O

B1: Example 60: Myristoyl-O2Oc-O2Oc-O2Oc-O2Oc-Q-R-P-R-L-C-H-K-G-P-Nle-C-f-OH (peptide)
peptide: Myristoyl-[AEEA][AEEA][AEEA][AEEA]QRPRLCHKGP[Nle]C[dF]-OH
modifications: disulfide 10-16
SMILES: CCCCCCCCCCCCCC(=O)NCCOCCOCC(=O)NCCOCCOCC(=O)NCCOCCOCC(=O)NCCOCCOCC(=O)N[C@@H](CCC(N)=O)C(=O)N[C@@H](CCCNC(=N)N)C(=O)N1CCC[C@H]1C(=O)N[C@@H](CCCNC(=N)N)C(=O)N[C@@H](CC(C)C)C(=O)N[C@H]1CSSC[C@@H](C(=O)N[C@H](Cc2ccccc2)C(=O)O)NC(=O)[C@H](CCCC)NC(=O)[C@@H]2CCCN2C(=O)CNC(=O)[C@H](CCCCN)NC(=O)[C@H](Cc2c[nH]cn2)NC1=O
B2: Example 62: pE-R-P-R-L-C-H-K-G-P-Nle-C-F-NH2 (peptide)
peptide: [pGlu]RPRLCHKGP[Nle]CF-NH2
modifications: disulfide 6-12
SMILES: CCCC[C@@H]1NC(=O)[C@@H]2CCCN2C(=O)CNC(=O)[C@H](CCCCN)NC(=O)[C@H](Cc2c[nH]cn2)NC(=O)[C@@H](NC(=O)[C@H](CC(C)C)NC(=O)[C@H](CCCNC(=N)N)NC(=O)[C@@H]2CCCN2C(=O)[C@H](CCCNC(=N)N)NC(=O)[C@@H]2CCC(=O)N2)CSSC[C@@H](C(=O)N[C@@H](Cc2ccccc2)C(N)=O)NC1=O
B3: Example 58: Myristoyl-O2Oc-O2Oc-Q-R-P-R-L-C-H-K-G-P-Nle-C-f-OH (peptide)
peptide: Myristoyl-[AEEA][AEEA]QRPRLCHKGP[Nle]C[dF]-OH
modifications: disulfide 8-14
SMILES: CCCCCCCCCCCCCC(=O)NCCOCCOCC(=O)NCCOCCOCC(=O)N[C@@H](CCC(N)=O)C(=O)N[C@@H](CCCNC(=N)N)C(=O)N1CCC[C@H]1C(=O)N[C@@H](CCCNC(=N)N)C(=O)N[C@@H](CC(C)C)C(=O)N[C@H]1CSSC[C@@H](C(=O)N[C@H](Cc2ccccc2)C(=O)O)NC(=O)[C@H](CCCC)NC(=O)[C@@H]2CCCN2C(=O)CNC(=O)[C@H](CCCCN)NC(=O)[C@H](Cc2c[nH]cn2)NC1=O
B4: Example 65: pE-R-P-R-L-C-H-K-G-P-Nle-C-F-OH with a monosulfide linkage between the 2 cysteines at position 6 and 12 (peptide)
peptide: [pGlu]RPRLCHKGP[Nle]CF-OH
modifications: bridge 6-12; not fully specified (bridges); printed as pE-R-P-R-L-C-H-K-G-P-Nle-C-F-OH
B5: Example 55: pE-R-P-R-L-(D-hC)-H-K-G-P-Nle-(D-hC)-F-OH (peptide)
peptide: [pGlu]RPRL[d(hCys)]HKGP[Nle][d(hCys)]F-OH
modifications: disulfide 6-12
SMILES: CCCC[C@@H]1NC(=O)[C@@H]2CCCN2C(=O)CNC(=O)[C@H](CCCCN)NC(=O)[C@H](Cc2c[nH]cn2)NC(=O)[C@H](NC(=O)[C@H](CC(C)C)NC(=O)[C@H](CCCNC(=N)N)NC(=O)[C@@H]2CCCN2C(=O)[C@H](CCCNC(=N)N)NC(=O)[C@@H]2CCC(=O)N2)CCSSCC[C@H](C(=O)N[C@@H](Cc2ccccc2)C(=O)O)NC1=O
B6: Example 8: pE-R-P-R-L-C-H-K-G-P-Nle-C-F-OH (peptide)
peptide: [pGlu]RPRLCHKGP[Nle]CF-OH
modifications: disulfide 6-12
B7: Example 66: pE-R-P-R-L-C-H-K-G-P-Nle-C-F-OH with a -S-CH2-C(=Z)-CH2-S- linkage between the 2 cysteines at position 6 and 12 (peptide)
peptide: [pGlu]RPRLCHKGP[Nle]CF-OH
modifications: linker 6-12 via ‑S‑CH2‑C(:Z)‑CH2‑S‑; also: Z = oxime with (S)-1-(aminooxy)-19-carboxy-2,7,16,21-tetraoxo-9,12-dioxa-3,6,15,20-tetraazaoctatriacontan-38-oic acid on the linker ketone
B8: Example 7: Q-R-P-R-L-C-F-K-G-P-Nle-C-F-G-G (peptide)
peptide: cyclo(QRPRLCFKGP[Nle]CFGG)
modifications: disulfide 6-12
B9: Example 59: Myristoyl-O2Oc-O2Oc-O2Oc-Q-R-P-R-L-C-H-K-G-P-Nle-C-f-OH (peptide)
peptide: Myristoyl-[AEEA][AEEA][AEEA]QRPRLCHKGP[Nle]C[dF]-OH
modifications: disulfide 9-15
SMILES: CCCCCCCCCCCCCC(=O)NCCOCCOCC(=O)NCCOCCOCC(=O)NCCOCCOCC(=O)N[C@@H](CCC(N)=O)C(=O)N[C@@H](CCCNC(=N)N)C(=O)N1CCC[C@H]1C(=O)N[C@@H](CCCNC(=N)N)C(=O)N[C@@H](CC(C)C)C(=O)N[C@H]1CSSC[C@@H](C(=O)N[C@H](Cc2ccccc2)C(=O)O)NC(=O)[C@H](CCCC)NC(=O)[C@@H]2CCCN2C(=O)CNC(=O)[C@H](CCCCN)NC(=O)[C@H](Cc2c[nH]cn2)NC1=O
B10: Example 6: pE-R-P-R-L-K-F-K-G-P-Nle-f (peptide)
peptide: [pGlu]RPRLKFKGP[Nle][dF]
modifications: lactam 6-C
SMILES: CCCC[C@@H]1NC(=O)[C@@H]2CCCN2C(=O)CNC(=O)[C@H](CCCCN)NC(=O)[C@H](Cc2ccccc2)NC(=O)[C@@H](NC(=O)[C@H](CC(C)C)NC(=O)[C@H](CCCNC(=N)N)NC(=O)[C@@H]2CCCN2C(=O)[C@H](CCCNC(=N)N)NC(=O)[C@@H]2CCC(=O)N2)CCCCNC(=O)[C@@H](Cc2ccccc2)NC1=O
B11: Example 9: pE-R-P-R-L-C-Aib-K-G-P-Nle-C-F-OH (peptide)
peptide: [pGlu]RPRLC[Aib]KGP[Nle]CF-OH
modifications: disulfide 6-12
SMILES: CCCC[C@@H]1NC(=O)[C@@H]2CCCN2C(=O)CNC(=O)[C@H](CCCCN)NC(=O)C(C)(C)NC(=O)[C@@H](NC(=O)[C@H](CC(C)C)NC(=O)[C@H](CCCNC(=N)N)NC(=O)[C@@H]2CCCN2C(=O)[C@H](CCCNC(=N)N)NC(=O)[C@@H]2CCC(=O)N2)CSSC[C@@H](C(=O)N[C@@H](Cc2ccccc2)C(=O)O)NC1=O
B12: Example 57: pE-R-P-R-L-c-H-K-G-P-Nle-c-F-OH (peptide)
peptide: [pGlu]RPRL[dC]HKGP[Nle][dC]F-OH
modifications: disulfide 6-12
SMILES: CCCC[C@@H]1NC(=O)[C@@H]2CCCN2C(=O)CNC(=O)[C@H](CCCCN)NC(=O)[C@H](Cc2c[nH]cn2)NC(=O)[C@H](NC(=O)[C@H](CC(C)C)NC(=O)[C@H](CCCNC(=N)N)NC(=O)[C@@H]2CCCN2C(=O)[C@H](CCCNC(=N)N)NC(=O)[C@@H]2CCC(=O)N2)CSSC[C@H](C(=O)N[C@@H](Cc2ccccc2)C(=O)O)NC1=O
B13: Example 61: pE-R-P-R-L-C-H-K(Myristoyl)-G-P-Nle-C-F-OH (peptide)
peptide: [pGlu]RPRLCHK(Myristoyl)GP[Nle]CF-OH
modifications: disulfide 6-12
SMILES: CCCCCCCCCCCCCC(=O)NCCCC[C@@H]1NC(=O)[C@H](Cc2c[nH]cn2)NC(=O)[C@@H](NC(=O)[C@H](CC(C)C)NC(=O)[C@H](CCCNC(=N)N)NC(=O)[C@@H]2CCCN2C(=O)[C@H](CCCNC(=N)N)NC(=O)[C@@H]2CCC(=O)N2)CSSC[C@@H](C(=O)N[C@@H](Cc2ccccc2)C(=O)O)NC(=O)[C@H](CCCC)NC(=O)[C@@H]2CCCN2C(=O)CNC1=O
B14: Example 56: pE-R-P-R-L-C-H-K-G-P-Nle-c-F-OH (peptide)
peptide: [pGlu]RPRLCHKGP[Nle][dC]F-OH
modifications: disulfide 6-12
SMILES: CCCC[C@@H]1NC(=O)[C@@H]2CCCN2C(=O)CNC(=O)[C@H](CCCCN)NC(=O)[C@H](Cc2c[nH]cn2)NC(=O)[C@@H](NC(=O)[C@H](CC(C)C)NC(=O)[C@H](CCCNC(=N)N)NC(=O)[C@@H]2CCCN2C(=O)[C@H](CCCNC(=N)N)NC(=O)[C@@H]2CCC(=O)N2)CSSC[C@H](C(=O)N[C@@H](Cc2ccccc2)C(=O)O)NC1=O
B15: Example 63: pE-R-P-R-L-C-H-K-G-P-Nle-C-NH2 (peptide)
peptide: [pGlu]RPRLCHKGP[Nle]C-NH2
modifications: disulfide 6-12
SMILES: CCCC[C@@H]1NC(=O)[C@@H]2CCCN2C(=O)CNC(=O)[C@H](CCCCN)NC(=O)[C@H](Cc2c[nH]cn2)NC(=O)[C@@H](NC(=O)[C@H](CC(C)C)NC(=O)[C@H](CCCNC(=N)N)NC(=O)[C@@H]2CCCN2C(=O)[C@H](CCCNC(=N)N)NC(=O)[C@@H]2CCC(=O)N2)CSSC[C@@H](C(N)=O)NC1=O
B16: Example 64: pE-R-P-R-L-C-H-K-G-P-Nle-C-F-OH with a -S-CH2-C(O)CH2-S- linkage between the cysteines at position 6 and 12 (peptide)
peptide: [pGlu]RPRLCHKGP[Nle]CF-OH
modifications: linker 6-12 via ‑S‑CH2‑C(O)CH2‑S‑

molecular target: T1, human APJ receptor (hAPJ) (human, UniProt P35414 1-380); assay: cell-based or functional assay
T1 sequence (looked up): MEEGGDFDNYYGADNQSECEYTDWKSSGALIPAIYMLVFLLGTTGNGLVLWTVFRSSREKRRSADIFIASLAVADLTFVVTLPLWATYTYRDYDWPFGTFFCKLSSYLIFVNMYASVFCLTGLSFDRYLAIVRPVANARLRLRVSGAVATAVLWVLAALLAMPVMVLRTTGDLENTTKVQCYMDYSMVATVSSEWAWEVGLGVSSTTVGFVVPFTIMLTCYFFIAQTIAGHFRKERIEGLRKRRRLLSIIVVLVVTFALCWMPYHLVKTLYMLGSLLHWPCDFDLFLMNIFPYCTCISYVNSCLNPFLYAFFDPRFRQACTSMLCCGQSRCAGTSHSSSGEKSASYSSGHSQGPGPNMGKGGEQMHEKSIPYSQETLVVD

Going from B1 to B2, the “hAPJ Ca2+ Flux EC50” value falls from 8.15 nM to 3.32 nM (2.5-fold).

Going from B3 to B4, the “hAPJ Ca2+ Flux EC50” value falls from 13.1 nM to 1.1 nM (12-fold).

First: B5
Second: B6
The “hAPJ Ca2+ Flux EC50” value of the first is 7.8-fold higher: 8.16 nM for the first, 1.04 nM for the second.

Compared with B7, B8 is 6.5-fold lower in “hAPJ Ca2+ Flux EC50” value: 589 nM for the first, 90.8 nM for the second.

Going from B9 to B10, the “hAPJ Ca2+ Flux EC50” value rises from 10 nM to 22 nM (2.2-fold).

B11 and B12 are within 1.5-fold of each other in “hAPJ Ca2+ Flux EC50” value: 2.16 nM for the first, 2.01 nM for the second.

First: B13
Second: B14
The “hAPJ Ca2+ Flux EC50” value of the first is 80-fold higher: 89.2 nM for the first, 1.12 nM for the second.

Compared with B15, B16 is 2-fold higher in “hAPJ Ca2+ Flux EC50” value: 3.18 nM for the first, 6.3 nM for the second.
